# Laboratory results published in article PMC4770912.
# How the values were obtained:
# [1] = target: SIRPα variant (10), three domain construct with rat CD4d3+4 tag (human); assay: SPR; as a1, CD47 at 22 uM passed over again after OX130 MAb had been passed over the immobilised SIRP proteins
# [2] = target: SIRPα variant (10), three domain construct with rat CD4d3+4 tag (human); assay: SPR; BIAcore 3000; SIRP proteins captured through their rat CD4d3+4 tag on the rat CD4 MAb OX68 immobilised on a CM5 chip (about 1000 RU); human CD47 at 22 uM passed over; RU of the control rat CD4 domains 3 and 4 subtracted
# Sequence of SIRPα variant (10), three domain construct with rat CD4d3+4 tag (human) (main, as listed by the source mutant): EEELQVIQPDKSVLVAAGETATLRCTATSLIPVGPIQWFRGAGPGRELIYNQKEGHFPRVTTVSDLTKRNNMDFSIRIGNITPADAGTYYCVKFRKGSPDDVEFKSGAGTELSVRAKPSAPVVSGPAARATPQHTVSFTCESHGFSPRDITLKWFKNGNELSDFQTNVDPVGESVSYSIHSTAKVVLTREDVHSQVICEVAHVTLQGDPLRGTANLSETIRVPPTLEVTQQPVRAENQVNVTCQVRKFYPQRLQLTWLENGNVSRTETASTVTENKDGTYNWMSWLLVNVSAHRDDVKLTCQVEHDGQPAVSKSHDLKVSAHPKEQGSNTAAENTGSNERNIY
substance,measurement,setting,value
Human CD47 (from UniProt Q08722 19-141) (ligand),response units (RU) after OX130 injection,[1],247 RU
same,response units (RU),[2],280 RU
